{"source": "patent US20060105948A1", "about": "“GLP-2 derivatives” (Novo Nordisk A/S, priority 2003, published 2006)", "origin": "cited, not measured here", "key": {"[1]": {"settings": "in vivo"}, "[2]": {"settings": "humans"}, "[3]": {"test_system": "(DS)-induced colitis in mice", "settings": "350 ng or 750 ng s.c. twice daily for 9-10 days"}, "[4]": {"settings": "s.c. injection 400 mg = 106.000 pmol"}}, "data": [{"substance": "GLP-2(1-33)", "values": [{"measurement": "biological half-life", "setting": "[1]", "value": "about 7 min"}, {"measurement": "T½ value of elimination", "setting": "[2]; GLP-2 infusion 0.8 pmol/kg * min", "value": 7, "unit": "min"}, {"measurement": "plasma level of intact GLP-2(1-33) reached on infusion", "setting": "[2]; GLP-2 infusion 0.8 pmol/kg * min, increasing from 9 pM", "value": 0.131, "unit": "nM"}, {"measurement": "injected GLP-2(1-33) still intact", "setting": "[2]; one hour after the s.c. injection", "value": 69, "unit": "%"}, {"measurement": "maximum plasma concentration", "setting": "[2]; [4]", "value": 1500, "unit": "pM"}, {"measurement": "time of maximum plasma concentration", "setting": "[2]; [4]", "value": 45, "unit": "min"}]}, {"substance": "A2G-GLP-2(1-33) (HGDGSFSDEMNTILDNLAARDFINWLIQTKITD; Glucagon-like peptide 2; UniProt P01275 146-178, looked up, variant A2G) [GLP-2 peptide analog with Ala2 replaced by Gly]", "values": [{"measurement": "histology of colon", "setting": "[3]; DS mice", "value": "greater proportion of intact mucosal epithelium, increased colon length, crypt depth and mucosal area"}, {"measurement": "body weight loss", "setting": "[3]; mice on 5% DS in drinking water", "value": "lost significantly less body weight"}]}]}
